The values below are quoted from earlier work in patent US6645518B2, “Uses for medical devices having a lubricious, nitric oxide-releasing coating” (priority 1998, dated 2003).

The data set deals with clinical restenosis. Conditions: after balloon angioplasty, systemic administration, six month follow-up.

B1: c7E3: potent anti-platelet agent, GPIIb/IIIa antibody, FDA-approved for use after balloon angioplasty (antibody, chains of the INN, looked up, V domains shown)
VH: EVQLQQSGTVLARPGASVKMSCEASGYTFTNYWMHWVKQRPGQGLEWIGAIYPGNSDTSYIQKFKGKAKLTAVTSTTSVYMELSSLTNEDSAVYYCTLYDGYYVFAYWGQGTLVTVSA
VL: EIVLTQSPVTLSVTPGDSVSLSCRASRDISNNLHWFQQTSHESPRLLIKYASQSMSGIPSRFSGSGSGTDFTLSINSVETEDFGMYFCQQTNSWPYTFGGGTKLEIK
Consider B1, for which the “reduction of clinical restenosis” value is given as 20-30%.
